Measurements reported in patent US20250066503A1, “CELL INJURY INDUCING THERAPEUTIC DRUG FOR USE IN CANCER THERAPY” (CHUGAI SEIYAKU KABUSHIKI KAISHA, priority 2016, published 2025).
Residue numbers refer to the chain shown, from its start.

B1: H0610-G1dh/none-Hi-Kn010G3/TR01L010-k0 (antibody, V domains shown)
VH: QVQLVQSGAEVKKPGASVKVSCKASGYTFTDYEMHWIRQPPGQGLEWIGAIDGKTPDTAYSQKFKGRVTLTADKSTSTAYMELSSLTSEDTAVYYCTRFYSYTYWGQGTLVTVSS
VL: DIVMTQSPLSLPVTPGEPASISCRSSQSLVHSNRNTYLHWYQQKPGQAPRLLIYKVSNRFRGVPDRFSGSGSGTDFTLKISRVEAEDVGVYYCGQGTQVPYTFGQGTKVEIE
notes: one-arm
B2: H0610-G1dh/none-Hi-Kn010G3/TR01L011-k0 (antibody, V domains shown)
VH: B1 VH
VL: B1 VL with R24Q, S25A, Q27E
notes: one-arm
B3: H0610-G1dh/none-Hi-Kn010G3/TR01L012-k0 (antibody, V domains shown)
VH: B1 VH
VL: B1 VL with Q42L, A48S, R50Q
notes: one-arm
B4: H0610-G1dh/none-Hi-Kn010G3/TR01L015-k0 (antibody, V domains shown)
VH: B1 VH
VL: B1 VL with L29P, Q42L, A48S, R50Q, R61S, V109L, E112K
notes: one-arm
B5: H0610-G1dh/none-Hi-Kn010G3/TR01L016-k0 (antibody, V domains shown)
VH: B1 VH
VL: B1 VL with L29P, Q42L, A48S, R50Q, R61S, G94Y, V109L, E112K
notes: one-arm
B6: H0610-G1dh/none-Hi-Kn010G3/TR01L017-k0 (antibody, V domains shown)
VH: B1 VH
VL: B1 VL with L29P, L38I, H39Q, Q42L, A48S, R50Q, R61S, G94Y, V109L, E112K
notes: one-arm
B7: H0610-G1dh/none-Hi-Kn010G3/TR01L018-k0 (antibody, V domains shown)
VH: B1 VH
VL: B1 VL with R24Q, S25A, Q27E, L29P, Q42L, A48S, R50Q, R61S, V109L, E112K
notes: one-arm
B8: H0610-G1dh/none-Hi-Kn010G3/TR01L019-k0 (antibody, V domains shown)
VH: B1 VH
VL: DIVMTQSPLSLPVTPGEPASISCQASESPVHSNRNTYLHWYLQKPGQSPQLLIYKVSNRFSGVPDRFSGSGSGTDFTLKISRVEAEDVGVYYCYQGTQVPYTFGQGTKLEIK
notes: one-arm
B9: H0610-G1dh/none-Hi-Kn010G3/TR01L020-k0 (antibody, V domains shown)
VH: B1 VH
VL: B8 VL with L38I, H39Q
notes: one-arm
B10: GCH025-G1dh/none-Hi-Kn010G3/L0000-k0 (antibody, V domains shown)
VH: B1 VH with K19T, Q43E, K54E
VL: DIVMTQSPLSLPVTPGEPASISCRSSQSLVHSNRNTYLHWYQQKPGQAPRLLIYKVSNRFSGVPDRFSGSGSGTDFTLKISRVEAEDVGVYYCGQGTQVPYTFGQGTKLEIKR
notes: one-arm
B11: GCH003-G1dh/none-Hi-Kn010G3/L0000-k0 (antibody, V domains shown)
VH: B1 VH with K54D
VL: B10 VL
notes: one-arm
B12: GCH005-G1dh/none-Hi-Kn010G3/L0000-k0 (antibody, V domains shown)
VH: B1 VH with Y60E
VL: B10 VL
notes: one-arm
B13: GCH006-G1dh/none-Hi-Kn010G3/L0000-k0 (antibody, V domains shown)
VH: B1 VH with S61E
VL: B10 VL
notes: one-arm
B14: GCH007-G1dh/none-Hi-Kn010G3/L0000-k0 (antibody, V domains shown)
VH: B1 VH with Q62D
VL: B10 VL
notes: one-arm
B15: GCH008-G1dh/none-Hi-Kn010G3/L0000-k0 (antibody, V domains shown)
VH: B1 VH with K54E
VL: B10 VL
notes: one-arm
B16: GCH010-G1dh/none-Hi-Kn010G3/L0000-k0 (antibody, V domains shown)
VH: B1 VH with K54D, S61E
VL: B10 VL
notes: one-arm
B17: GCH012-G1dh/none-Hi-Kn010G3/L0000-k0 (antibody, V domains shown)
VH: B1 VH with Y60E, S61E
VL: B10 VL
notes: one-arm
B18: GCH013-G1dh/none-Hi-Kn010G3/L0000-k0 (antibody, V domains shown)
VH: B1 VH with K19T, S61E
VL: B10 VL
notes: one-arm
B19: GCH014-G1dh/none-Hi-Kn010G3/L0000-k0 (antibody, V domains shown)
VH: B1 VH with Q43E, S61E
VL: B10 VL
notes: one-arm
B20: GCH015-G1dh/none-Hi-Kn010G3/L0000-k0 (antibody, V domains shown)
VH: B1 VH with S61E, Q62E, K63S
VL: B10 VL
notes: one-arm
B21: GCH016-G1dh/none-Hi-Kn010G3/L0000-k0 (antibody, V domains shown)
VH: B1 VH with S61E, K65Q, G66D
VL: B10 VL
notes: one-arm
B22: GCH019-G1dh/none-Hi-Kn010G3/L0000-k0 (antibody, V domains shown)
VH: B1 VH with K19T, Q43E, S61E
VL: B10 VL
notes: one-arm
B23: GCH022-G1dh/none-Hi-Kn010G3/L0000-k0 (antibody, V domains shown)
VH: B1 VH with K19T, K54E
VL: B10 VL
notes: one-arm
B24: GCH023-G1dh/none-Hi-Kn010G3/L0000-k0 (antibody, V domains shown)
VH: B1 VH with Q43E, K54E
VL: B10 VL
notes: one-arm
B25: GCH025-G1dh/none-Hi-Kn010G3/L0204-k0 (antibody, V domains shown)
VH: B1 VH with K19T, Q43E, K54E
VL: B10 VL with L29P, S61R
notes: one-arm
B26: GCH026-G1dh/none-Hi-Kn010G3/L0000-k0 (antibody, V domains shown)
VH: B1 VH with K54E, Q62E, K63S
VL: B10 VL
notes: one-arm
B27: GCH027-G1dh/none-Hi-Kn010G3/L0000-k0 (antibody, V domains shown)
VH: B1 VH with T28E
VL: B10 VL
notes: one-arm
B28: GCH029-G1dh/none-Hi-Kn010G3/L0000-k0 (antibody, V domains shown)
VH: B1 VH with T30E
VL: B10 VL
notes: one-arm
B29: GCH032-G1dh/none-Hi-Kn010G3/L0000-k0 (antibody, V domains shown)
VH: B1 VH with Q62E
VL: B10 VL
notes: one-arm
B30: GCH034-G1dh/none-Hi-Kn010G3/L0000-k0 (antibody, V domains shown)
VH: B1 VH with K65E
VL: B10 VL
notes: one-arm
B31: GCH035-G1dh/none-Hi-Kn010G3/L0000-k0 (antibody, V domains shown)
VH: B1 VH with T69E
VL: B10 VL
notes: one-arm
B32: GCH039-G1dh/none-Hi-Kn010G3/L0000-k0 (antibody, V domains shown)
VH: B1 VH with S84E
VL: B10 VL
notes: one-arm
B33: GCH040-G1dh/none-Hi-Kn010G3/L0000-k0 (antibody, V domains shown)
VH: B1 VH with S85E
VL: B10 VL
notes: one-arm
B34: GCH042-G1dh/none-Hi-Kn010G3/L0000-k0 (antibody, V domains shown)
VH: B1 VH with S88E
VL: B10 VL
notes: one-arm
B35: GCH043-G1dh/none-Hi-Kn010G3/L0000-k0 (antibody, V domains shown)
VH: B1 VH with T91E
VL: B10 VL
notes: one-arm
B36: GCH045-G1dh/none-Hi-Kn010G3/L0000-k0 (antibody, V domains shown)
VH: B1 VH with V93E
VL: B10 VL
notes: one-arm
B37: GCH053-G1dh/none-Hi-Kn010G3/L0000-k0 (antibody, V domains shown)
VH: B1 VH with K19T, Q43E, K54E, S61E
VL: B10 VL
notes: one-arm
B38: GCH054-G1dh/none-Hi-Kn010G3/L0000-k0 (antibody, V domains shown)
VH: B1 VH with K19T, Q43E, K54E, Q62E
VL: B10 VL
notes: one-arm
B39: GCH054-G1dh/none-Hi-Kn010G3/L0201-k0 (antibody, V domains shown)
VH: B1 VH with K19T, Q43E, K54E, Q62E
VL: B10 VL with S28P, L29P
notes: one-arm
B40: GCH054-G1dh/none-Hi-Kn010G3/L0203-k0 (antibody, V domains shown)
VH: B1 VH with K19T, Q43E, K54E, Q62E
VL: B10 VL with L29P, L38I
notes: one-arm
B41: GCH054-G1dh/none-Hi-Kn010G3/L0212-k0 (antibody, V domains shown)
VH: B1 VH with K19T, Q43E, K54E, Q62E
VL: B10 VL with S25P, L29P, G94Y
notes: one-arm
B42: GCH054-G1dh/none-Hi-Kn010G3/L0222-k0 (antibody, V domains shown)
VH: B1 VH with K19T, Q43E, K54E, Q62E
VL: B10 VL with L29P, L38I, H39Q, G94Y
notes: one-arm
B43: GCH055-G1dh/none-Hi-Kn010G3/L0000-k0 (antibody, V domains shown)
VH: B1 VH with K19T, Q43E, K54E, Q62D
VL: B10 VL
notes: one-arm
B44: GCH055-G1dh/none-Hi-Kn010G3/L0212-k0 (antibody, V domains shown)
VH: B1 VH with K19T, Q43E, K54E, Q62D
VL: B10 VL with S25P, L29P, G94Y
notes: one-arm
B45: GCH055-G1dh/none-Hi-Kn010G3/L0222-k0 (antibody, V domains shown)
VH: B1 VH with K19T, Q43E, K54E, Q62D
VL: B10 VL with L29P, L38I, H39Q, G94Y
notes: one-arm
B46: GCH056-G1dh/none-Hi-Kn010G3/L0000-k0 (antibody, V domains shown)
VH: B1 VH with K19T, Q43E, K54E, K65E
VL: B10 VL
notes: one-arm
B47: GCH056-G1dh/none-Hi-Kn010G3/L0011-k0 (antibody, V domains shown)
VH: B1 VH with K19T, Q43E, K54E, K65E
VL: B10 VL with S28P
notes: one-arm
B48: GCH056-G1dh/none-Hi-Kn010G3/L0201-k0 (antibody, V domains shown)
VH: B1 VH with K19T, Q43E, K54E, K65E
VL: B10 VL with S28P, L29P
notes: one-arm

Molecular target: T1, human GPC3 (human, UniProt P51654 25-563)
T1 construct: range 25-563; soluble analyte; also called soluble human GPC3; glypican 3
Assay: SPR

T1 sequence (P51654 25-563 limits assumed): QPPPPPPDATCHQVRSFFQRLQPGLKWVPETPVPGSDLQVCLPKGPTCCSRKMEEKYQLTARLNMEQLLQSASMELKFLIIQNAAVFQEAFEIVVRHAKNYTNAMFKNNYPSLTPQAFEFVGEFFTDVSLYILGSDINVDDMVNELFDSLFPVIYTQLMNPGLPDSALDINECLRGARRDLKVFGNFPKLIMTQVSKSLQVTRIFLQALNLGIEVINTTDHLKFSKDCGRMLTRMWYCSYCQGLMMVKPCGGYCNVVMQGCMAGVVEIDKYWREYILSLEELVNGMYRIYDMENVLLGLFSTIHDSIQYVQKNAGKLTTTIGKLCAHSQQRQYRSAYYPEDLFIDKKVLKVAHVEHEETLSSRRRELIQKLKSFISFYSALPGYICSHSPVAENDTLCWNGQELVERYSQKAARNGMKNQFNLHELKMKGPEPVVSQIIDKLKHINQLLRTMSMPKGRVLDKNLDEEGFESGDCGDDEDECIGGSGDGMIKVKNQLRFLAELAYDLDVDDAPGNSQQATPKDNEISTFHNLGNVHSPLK

| Kd | Binder |
| --- | --- |
| 2.92 nM | B1 |
| 4.02 nM | B2 |
| 4.25 nM | B3 |
| 2.16 nM | B4 |
| 1.08 nM | B5 |
| 0.00827 nM | B6 |
| 2.17 nM | B7 |
| 1.15 nM | B8 |
| 0.0224 nM | B9 |
| 5.05 nM | B10 |
| 5.2 nM | B11 |
| 5.32 nM | B12 |
| 4.06 nM | B13 |
| 4.93 nM | B14 |
| 5.55 nM | B15 |
| 4.12 nM | B16 |
| 5.4 nM | B17 |
| 4.44 nM | B18 |
| 4.2 nM | B19 |
| 4.14 nM | B20 |
| 4.59 nM | B21 |
| 4.36 nM | B22 |
| 4.92 nM | B23 |
| 4.94 nM | B24 |

| Kd | Binder |
| --- | --- |
| 0.67 nM | B25 |
| 5.17 nM | B26 |
| 3.83 nM | B27 |
| 5.01 nM | B28 |
| 5.74 nM | B29 |
| 5.09 nM | B30 |
| 4.94 nM | B31 |
| 4.95 nM | B32 |
| 4.8 nM | B33 |
| 4.89 nM | B34 |
| 3.74 nM | B35 |
| 4.63 nM | B36 |
| 4.05 nM | B37 |
| 5.3 nM | B38 |
| 1.08 nM | B39 |
| 2.48 nM | B40 |
| 0.517 nM | B41 |
| 0.0315 nM | B42 |
| 5.6 nM | B43 |
| 0.614 nM | B44 |
| 0.0039 nM | B45 |
| 5.03 nM | B46 |
| 4.31 nM | B47 |
| 1.16 nM | B48 |
